# B1: TMEM106C (parent)
# chain: FTGRDSITCLTCQGTGYIPTEQVN
# B2: INTS3 (parent)
# chain: YPPLEGHVRQGVFSSLNHIVEKRV
# Variants of: B1
# Experiment: protein stability index of a GFP-peptide fusion (GPS, HEK-293T) (PSI 1-6); higher = more stable
# Details: c terminus: a fixed tail appended
# 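Further: lentivirally expressed fusions sorted by FACS into six bins by GFP to DsRed ratio, PSI derived from sequencing read proportions per bin multiplied by bin number.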
row,Variant,protein stability index
1,FTGRDSITCLTCQGTGRIPTEQVN [Y17R],2.34
2,FTGRDSITCLTCQGTGYIPTEQRN [V23R],2.13
3,FTGRDSITCLTCQGTGYIPTEQGN [V23G],1.75

# Variants of: B2
# Experiment: as above
# Details: c terminus: a fixed tail appended
row,Variant,protein stability index
1,YPPLEGHFRQGVFSSLNHIVEKRV [V8F],2.23
2,YPPLEGHHRQGVFSSLNHIVEKRV [V8H],2.48
3,YPPLEGHVRQGVFSSLPHIVEKRV [N17P],2.4
4,YPPLEGHVRQLVFSSLNHIVEKRV [G11L],1.85
5,YPPLEGHVRQDVFSSLNHIVEKRV [G11D],2.59
6,YPPLEGHVRQAVFSSLNHIVEKRV [G11A],2.31
7,YPPLEGHVRQWVFSSLNHIVEKRV [G11W],1.34
8,YPPLEGHVRQGVFSSLNHIVEHRV [K22H],2.65
9,YPPLEGHVRQGVFSSLNHIVEYRV [K22Y],1.34
10,YPPLEGHVRQGVFSSLNHIVECRV [K22C],1.43
11,YPPLEGHVRQGVFSSLNHIVESRV [K22S],2.09
12,YPPLEGHVWQGVFSSLNHIVEKRV [R9W],1.72
13,YPPLEGHVCQGVFSSLNHIVEKRV [R9C],2.06
14,YPPLEGHVAQGVFSSLNHIVEKRV [R9A],3.24
15,YPPLEGHVMQGVFSSLNHIVEKRV [R9M],2.47
16,YPPLEGHVNQGVFSSLNHIVEKRV [R9N],2.75
17,YPPLEGHVLQGVFSSLNHIVEKRV [R9L],2.07
18,YPPLEGHVRQGVFSSLNSIVEKRV [H18S],2.65
19,YPPLEGHVRQGVFSSLNNIVEKRV [H18N],2.78
20,YPPLEGHVRQGVFSSLNFIVEKRV [H18F],1.97
21,YPPLEGHVRSGVFSSLNHIVEKRV [Q10S],3.33
22,YPPLEGHVRGGVFSSLNHIVEKRV [Q10G],2.82
23,YPPLEGHVRLGVFSSLNHIVEKRV [Q10L],1.72

row,Variant,protein stability index
1,YPPLEGHVRWGVFSSLNHIVEKRV [Q10W],1.49
2,YPPLEGHVRDGVFSSLNHIVEKRV [Q10D],3.18
3,YPPLEGHVRFGVFSSLNHIVEKRV [Q10F],2.62
4,YPPLEGHVRQGVFSSLNHIVEKAV [R23A],2.19
5,YPPLEGHVRQGVFSSLNHIVEKDV [R23D],2.83
6,YPPLEGHVRQGVFSSLNHIVEKCV [R23C],2.22
7,YPPLEGHVRQGVFSSLNHIVEKWV [R23W],2.62
8,YPPLEGHVRQGVFSSLNHIVEKYV [R23Y],2.48
9,YPPLEGHVRQGVFSSLNHIVEKSV [R23S],2.67
10,YPPLEGHVRQGVFSSLNHIVEKPV [R23P],2.39
11,YPPLEGHVRQGVFNSLNHIVEKRV [S14N],2.41
12,YPPLEGHVRQGVFKSLNHIVEKRV [S14K],2.6
13,YPPLEGHVRQGVFVSLNHIVEKRV [S14V],2.29
14,YPPLEGHVRQGVFSSLNHIVCKRV [E21C],2.23
15,YPPLEGHVRQGVFSSLNHIVVKRV [E21V],2.48
16,YPPLEGHVRQGVFSSLNHIVIKRV [E21I],1.74
17,YPPLEGHVRQGVFSSLNHIVFKRV [E21F],2.72
18,YPPLEGHVRQGVFSSLNHIVKKRV [E21K],2.26
19,YPPLEGHVRQGVFSSLNHIVRKRV [E21R],2.45
20,YPPLEGHVRQGMFSSLNHIVEKRV [V12M],2.36
21,YPPLEGHVRQGRFSSLNHIVEKRV [V12R],3.5
22,YPPLEGHVRQGCFSSLNHIVEKRV [V12C],2.21
23,YPPLEGHVRQGFFSSLNHIVEKRV [V12F],2.69

row,Variant,protein stability index
1,YPPLEGHVRQGYFSSLNHIVEKRV [V12Y],2.54
2,YPPLEGHVRQGSFSSLNHIVEKRV [V12S],2.11
3,YPPLEGHVRQGQFSSLNHIVEKRV [V12Q],3.95
4,YPPLEGHVRQGVFSSTNHIVEKRV [L16T],2.77
5,YPPLEGHVRQGVFSSHNHIVEKRV [L16H],2.94
6,YPPLEGHVRQGVFSSMNHIVEKRV [L16M],2.39
7,YPPLEGHVRQGVFSSANHIVEKRV [L16A],3.33
8,YPPLEGHVRQGVFSSKNHIVEKRV [L16K],3.35
9,YPPLLGHVRQGVFSSLNHIVEKRV [E5L],2.14
10,YPPLKGHVRQGVFSSLNHIVEKRV [E5K],2.1
11,YPPLGGHVRQGVFSSLNHIVEKRV [E5G],3.59
12,YPPLHGHVRQGVFSSLNHIVEKRV [E5H],2.24
13,YPPLEGHVRQGVFSSLNHNVEKRV [I19N],3.23
14,YPPLEGHVRQGVFSSLNHQVEKRV [I19Q],2.52
15,YPPLEGHVRQGVFSSLNHTVEKRV [I19T],2.88
16,YPPLEGHVRQGVFSSLNHSVEKRV [I19S],2.53
17,YPPLEGHVRQGVFSSLNHHVEKRV [I19H],2.65
18,YPPLEFHVRQGVFSSLNHIVEKRV [G6F],2.2
19,YPPLEEHVRQGVFSSLNHIVEKRV [G6E],3.51
20,YPPLEIHVRQGVFSSLNHIVEKRV [G6I],1.76
21,YPPLEVHVRQGVFSSLNHIVEKRV [G6V],2.07
22,YPPLERHVRQGVFSSLNHIVEKRV [G6R],2.3
23,YPPLEGAVRQGVFSSLNHIVEKRV [H7A],2.68

row,Variant,protein stability index
1,YPPLEGLVRQGVFSSLNHIVEKRV [H7L],2.2
2,PPPLEGHVRQGVFSSLNHIVEKRV [Y1P],3.94
3,HPPLEGHVRQGVFSSLNHIVEKRV [Y1H],4.07
4,RPPLEGHVRQGVFSSLNHIVEKRV [Y1R],4.09
5,YPPLEGHVRQGVFSSLNHISEKRV [V20S],2.29
6,YPPLEGHVRQGVFSSLNHIREKRV [V20R],2.9
7,YPPLEGHVRQGVFSSLNHIQEKRV [V20Q],2.72
8,YPPLEGHVRQGVFSSLNHICEKRV [V20C],2
9,YPPLEGHVRQGVFSSLNHILEKRV [V20L],2.2
10,YPPLEGHVRQGVESSLNHIVEKRV [F13E],3.99
11,YPPLEGHVRQGVTSSLNHIVEKRV [F13T],2.98
12,YPPVEGHVRQGVFSSLNHIVEKRV [L4V],3.04
13,YPPHEGHVRQGVFSSLNHIVEKRV [L4H],3.01
14,YPPLEGHVRQGVFSSLNHIVEKRI [V24I],2.69
15,YPPLEGHVRQGVFSSLNHIVEKRT [V24T],2.09
16,YPPLEGHVRQGVFSELNHIVEKRV [S15E],2.17
17,YPPLEGHVRQGVFSPLNHIVEKRV [S15P],1.54
18,YPELEGHVRQGVFSSLNHIVEKRV [P3E],2.86
19,YPILEGHVRQGVFSSLNHIVEKRV [P3I],3.38
20,YMPLEGHVRQGVFSSLNHIVEKRV [P2M],2.1
21,YEPLEGHVRQGVFSSLNHIVEKRV [P2E],3.54
22,YRPLEGHVRQGVFSSLNHIVEKRV [P2R],3.48
